In patent US20260265360A1, “USE OF ANTI-FAM19A5 ANTAGONISTS FOR TREATING HEARING DISORDERS” (NEURACLE SCIENCE CO., LTD., priority 2023, published 2026):

B1: P2-A03: anti-FAM19A5 antibody; VH SEQ ID NO: 163, VL SEQ ID NO: 174 (antibody, V domains shown)
VH: QSVEESGGRLVTPGTPLTLTCTVSGFSLNNYDMSWVRQAPGKGLEYIGFMDTDGSAYYATWAKGRFTISRTSTTVDLKMTSPTTEDTATYFCARRGSSYYGGIDIWGPGTPVTVSL
VL: ELDLTQTPASVSEPVGGTVTIKCQASQSIGGNLAWYQQKPGQPPKLLIYRASTLASGVPSRFKGSGSGTDFTLTISDLECADAATYYCQSPAYDPAAYVGNAFGGGTELEIL
modifications: P2-A03 VH; P2-A03 VL
B2: P2-F11: anti-FAM19A5 antibody; VH SEQ ID NO: 165, VL SEQ ID NO: 176 (antibody, V domains shown)
VH: QEQLVESGGRLVTPGTTLTLTCTVSGFSLSSYGVSWVRQAPGKGLEWIGYIANNYNPHYASWAKGRFTISKTSSTTVDLKMTSLTTEDTATYFCARDNYGMDPWGPGTLVTVSS
VL: ELDLTQTPSSVSAAVGGTVTINCQASQSVYNNKNLAWYQQKPGQPPKLLIYAASTLASGVSSRFKGSGSGTQFTLTISDVQCDDAATYYCQGEFSCSSADCNAFGGGTELEIL
modifications: P2-F11 VH; P2-F11 VL
B3: P1-A08: anti-FAM19A5 antibody; VH SEQ ID NO: 160, VL SEQ ID NO: 171 (antibody, V domains shown)
VH: QSLEESGGRLVTPGTPLTLTCTASGFSLSTYYMSWVRQAPGKGLEWIGIVYPSGTTYYANWAKGRFTISTASTTVDLMITSPTTEDTATYFCARGDSFGYGLWGPGTLVTVSS
VL: ELVLTQSPSVQVNLGQTVSLTCTADTLSRSYASWYQQKPGQAPVLLIYRDTSRPSGVPDRFSGSSSGNTATLTISGAQAGDEADYYCATSDGSGSNYQYVFGGGTQLTVT
modifications: P1-A08 VH; P1-A08 VL
B4: 13F7: anti-FAM19A5 antibody; VH SEQ ID NO: 157, VL SEQ ID NO: 168 (antibody, V domains shown)
VH: QVQLQEWGAGLLKPSETLSLTCAINAESFNGYSWTWIRQTPGKGLEWIGEISHFGSANYNPSLKSRATISADKSKNQFSLKLTSVTAVDTAVYYCARALRGTYSRFYYGMDVWGQGTTVTVSS
VL: DIVMTQTPLSLPVAPGEPASISCRSSQSLLHSNGYNYLDWYVQKPGQPPQLLIYLGSNRASGVPDRFSGSGSGTDFTLKISRVEAEDVGVYYCMQARQTPLTFGGGTKVEIK
modifications: 13F7 VH; 13F7 VL
B5: P2-A01: anti-FAM19A5 antibody; VH SEQ ID NO: 162, VL SEQ ID NO: 173 (antibody, V domains shown)
VH: QEQLVESGGRLVTPGTPLTLSCTASGFFLSGYYMSWVRQAPGKGLEWIGIIYPSGSTDYASWAKGRFTISKTSTTVDLKITTPTTEDTATYFCARVAGYVGYGYETFFDIWGPGTLVTVSL
VL: ELVMTQTPPSLSASVGETVRIRCLASEDIYSGISWYQQKPGKPPTLLIYGASNLESGVPPRFSGSGSGSDYTLTIGGVQAEDAATYYCLGGVTYSSTGTHLTFGAGTNVEIK
modifications: P2-A01 VH; P2-A01 VL
B6: P1-F02: anti-FAM19A5 antibody; VH SEQ ID NO: 161, VL SEQ ID NO: 172 (antibody, V domains shown)
VH: QSLEESGGRLVTPGTPLTLTCTASGFSLSNYYMGWVRQAPGEGLEWIGIIYASGSTYYASWAKGRFTISKTSTTVDLKMTSLTTEDTATYFCARIDIGVGDYGWAYDRLDLWGQGTLVTVSS
VL: ELDMTQTPPSLSASVGETVRIRCLASEDIYSGISWYQQKPGKPPTLLIYGASNLESGVPPRFSGSGSGTDYTLTIGGVQAEDAATYYCLGGYSYSSITFGAGTNVEIK
modifications: P1-F02 VH; P1-F02 VL
B7: P2-F07: anti-FAM19A5 antibody; VH SEQ ID NO: 164, VL SEQ ID NO: 175 (antibody, V domains shown)
VH: QSLEESGGRLVTPGTPLTLTCTASGFSLSSYYMNWVRQAPGKGLEWIGIIYPSGTTYYAGWAKGRFTISKTSTTVDLKITSPTSEDTATYFCARTVSGYFDIWGPGTLVTVSL
VL: ELDLTQTPPSLSASVGGTVTINCLASEDIYSALAWYQQKPGKPPTLLISGTSNLESGVPPRFSGSGSGTDYTLTIGGVQAEDAATYFCQGYSSYPLTFGAGTNVEIK
modifications: P2-F07 VH; P2-F07 VL
B8: 15A9: anti-FAM19A5 antibody; VH SEQ ID NO: 158, VL SEQ ID NO: 169 (antibody, V domains shown)
VH: QVQLQESGPGLVKPSETLSLTCTVSGGSISSYYWSWIRQPPGKGLEWIGYIYPSGSTNYNPSLKSRVTISVDTSKNQFSLNLKSVTAVDTAVYYCARVNPFGYYYAMDVWGQGTTVTVSS
VL: DIQMTQSPSSLSASVGDRITISCRASQSISTSLNWYQQTPGKAPRLLIYGASTLQSGVPSRFSGGGSGTDFSLTITSLQPEDFATYYCQESASIPRTFGQGTKLDIK
modifications: 15A9 VH; 15A9 VL

Target: FAM19A5 antigen (Homo sapiens, UniProt Q7Z5A7)
Experiment: Cross-competition two-site sandwich ELISA
Type: binding
Settings: antibodies 1-65, P2-A03, P2-F11, 13B4, 2-13, 3-2; cross-competition = S/N ratio lower than 2
Experimental: The term “S/N” refers to the signal to noise ratio, which is measured as follows: [O.D. of 10 ng/ml antigen]/[O.D. of 0 ng/ml antigen].
Next, a two-site sandwich ELISA was used as described below to assess whether the different anti-FAM19A5 antibodies with similar binding epitopes cross-compete with each other.
First, the indicated anti-FAM19A5 antibodies were diluted in 1×PBS to a concentration of 10 μg/mL. The diluted anti-FAM19A5 antibodies (10 μg/mL in 1×PBS) (“capture antibody”) were used to coat the 96-well plates (100 μL/well) at 37° C. for approximately 1 hour. After the incubation, the plates were washed with the washing buffer (0.01% Tween-20/PBS; also called 0.01% PBST) for a total of five washes, blocked with the blocking solution (5% BSA/PBS; also called 5% PBSA) (250 μL/well) for one hour at 37° C., and then washed again. Next, 100 μg/mL of the FAM19A5 antigen (diluted in PBS containing 5% BSA, 0.01% Tween-20; also called 5% PBSAT; “diluent buffer) was added to each of the wells, and the 96-well plates were incubated for 2 hours at 37° C. After the incubations, the plates were washed using 0.01% PBST for a total of five washes. After the final wash, the indicated biotinylated anti-FAM19A5 antibodies (“detection antibody”) (diluted to lug/mL in 5% PBSAT) were added to the relevant wells (100 μL volume) and the plates were incubated for an additional 1 hour at 37° C. Afterwards, the plates were washed again with 0.01% PBST (five total washes). Next, 100 μL of the diluted (1/2000 in 5% PBSAT) Streptavidin-HRP (1 mg/mL, Sigma, USA) was added to the wells, and the plates were incubated for 30 minutes at room temperature. The plates were then washed and treated with 100 μL of the TMB substrate ([…], Thermo Fisher Scientific). After an additional 30-minute incubation at room temperature, the color change reaction was induced by the addition of the TMB substrate. This reaction was stopped using 50 μL of sulfuric acid (2N H2SO4), and the extent of color change was detected via absorption at 450 nm with reference wavelength at 620 nm using a 96 well microplate reader (Molecular Device).

Sequence of FAM19A5 antigen (Q7Z5A7 44-132): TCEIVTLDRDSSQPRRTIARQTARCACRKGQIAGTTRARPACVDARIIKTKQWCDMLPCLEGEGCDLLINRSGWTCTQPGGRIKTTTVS

| cross-competition with the other anti-FAM19A5 antibodies | Molecule |
| --- | --- |
| cross-competed with one another | B1 |
| cross-competed with one another | B2 |

Target: T1, FAM19A5 mutants M1 to M8 (Homo sapiens, UniProt Q7Z5A7)
T1 construct: made in house; host or cells: phage display with helper phage
Experiment: Epitope mapping ELISA with FAM19A5 mutants M1-M8
Type: binding
Settings: not given
Experimental: (§1) To further characterize the binding epitopes of the anti-FAM19A5 antibodies disclosed in the present disclosure, the amino acid sequences for the different FAM19 family members (i.e., FAM19A1-5) were aligned. […] The amino acid sequences of these regions were replaced with the consensus sequence of the corresponding regions for the FAM19A1-4 proteins. See Table 13 (the mutated amino acid residues are bolded and underlined).
(§2) The mutant FAM19A5-expressing phages were prepared as follows. To prepare the media for phage culture, 55.6 ml of 2M Glucose (D-(+)-Glucose, Sigma), 5 mL of 1M MgCl2 (Magnesium chloride, Junsei) 1 mL of 34 mg/mL chloramphenicol (Sigma) were added to 2×YT media. Colonies obtained through mono-phage ELISA were selected and placed in 5 mL of prepared media (2×YT-GMC) to be cultured for 16 hours at 37° C. with shaking incubator (VS-8480, Vision). 100 μL of each culture was transferred to 10 mL 2×YT-GMC individually which were cultured at 37° C. in the incubator until detection value at O.D. 600 nm reached 0.5. Once detection value has reached 0.5 at O.D. 600 nm, 5 mL of each culture were obtained as samples to be infected. Following sample preparation, 50 μL of […] was added to individual samples then incubated at 37° C. without shaking for 30 minutes and with shaking for additional 30 minutes. Individual cultures were centrifuged for 15 minutes at 3,850 rpm using Micro centrifuge (Micro12, Hanil). The supernatants of centrifuged cultures were removed to be kept separate and replaced with 5 mL of 2×YT media containing 1 mL of IM IPTG (AG Scientific), 5 mL of 1M MgCl2.1 ml of 70 μg/μL kanamycin (Biopure) and 1 mL of Chloramphenicol. The resulting pellets were dispersed thoroughly in newly added media followed by incubation at 30° C. for 16 hours with stirring.

T1 sequence (Q7Z5A7 with tags, fused parts or gaps isoform Q7Z5A7-2, change not shown): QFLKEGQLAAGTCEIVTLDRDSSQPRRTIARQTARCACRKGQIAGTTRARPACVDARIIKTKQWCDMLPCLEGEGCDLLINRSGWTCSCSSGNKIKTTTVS

| binding to FAM19A5 mutant M8 | Molecule |
| --- | --- |
| failed to bind | B1 |
| failed to bind | B3 |
| failed to bind | B4 |
| failed to bind | B5 |
| failed to bind | B2 |
| failed to bind | B6 |
| failed to bind | B7 |
| failed to bind | B8 |

Target: T2, FAM19A5 mutants M1 to M8 (Homo sapiens, UniProt Q7Z5A7, D109K/G107E/I112P/L110T/N113D/R114N)
T2 construct: made in house; host or cells: phage display with helper phage
Experiment: Epitope mapping ELISA with FAM19A5 mutants M1-M8
Type: binding
Settings: not given
Experimental: as §1, §2

T2 sequence (Q7Z5A7 26-125 isoform Q7Z5A7-2 G100E/D102K/L103T/I105P/N106D/R107N): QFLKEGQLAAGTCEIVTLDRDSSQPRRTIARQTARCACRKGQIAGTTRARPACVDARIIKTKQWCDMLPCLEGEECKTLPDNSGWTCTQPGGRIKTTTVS

| binding to FAM19A5 mutant M7 | Molecule |
| --- | --- |
| reduced binding | B4 |
| reduced binding | B8 |
